Results as given in patent US20020165186A1, “Compounds that affect CD83 expression, pharmaceutical compositions comprising said compounds and methods for identifying said compounds” (priority 2000, published 2002).

What was measured:
Format in all cases: binding
GST-ELAV (HuR) [1] = target: T1, GST-ELAV (HuR) (Homo sapiens, UniProt Q15717); assay: RNA gel competition mobility shift with unlabeled CD83 RNA; conditions: increasing amounts of unlabeled RNA, FIG. 5
T1 construct: made in house; host or cells: E. coli BL21
T1 sequence (Q15717 whole entry): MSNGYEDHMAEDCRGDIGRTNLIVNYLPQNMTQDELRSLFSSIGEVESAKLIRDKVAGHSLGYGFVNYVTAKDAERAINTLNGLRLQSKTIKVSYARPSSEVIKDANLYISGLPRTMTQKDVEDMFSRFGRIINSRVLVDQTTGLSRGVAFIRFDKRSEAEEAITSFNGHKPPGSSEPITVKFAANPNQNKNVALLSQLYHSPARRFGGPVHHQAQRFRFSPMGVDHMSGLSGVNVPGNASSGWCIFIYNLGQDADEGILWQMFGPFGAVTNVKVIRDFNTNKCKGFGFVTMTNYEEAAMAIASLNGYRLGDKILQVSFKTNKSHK
Procedure: For this, the binding mixture as described above was produced with increasing amounts of non-radioactive CD83 RNA and the RNA mobility shift experiments were carried out as described above, except that the binding mixture was incubated with the respective protein for 15 min and then the same amount of radioactively labeled CD83 RNA (1 μl) was subsequently added to each reaction and incubation was continued for a further 15 min.

GST protein = target: T2, GST protein (Schistosoma japonicum, UniProt P08515); assay: RNA gel mobility shift of CD83 RNA with GST protein control; conditions: native polyacrylamide gel, FIG. 3
T2 construct: made in house
T2 sequence (P08515 whole entry): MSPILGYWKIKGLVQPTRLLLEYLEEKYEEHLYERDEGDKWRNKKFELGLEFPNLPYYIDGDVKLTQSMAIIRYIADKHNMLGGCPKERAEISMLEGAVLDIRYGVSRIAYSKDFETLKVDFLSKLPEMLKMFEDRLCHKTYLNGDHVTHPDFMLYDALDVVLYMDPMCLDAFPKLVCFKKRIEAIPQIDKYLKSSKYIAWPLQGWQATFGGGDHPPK
Procedure: (§1) RNA mobility shift experiments were then carried out using the radioactively labeled CD83 RNA and the GST-ELAV (HuR) fusion protein as described above. 1 μl of approximately 150-200 ng/ml radioactively labeled CD83 RNA and 1 μl of GST-ELAV (HuR) (protein concentration: 0.3 mg/ml) were used per reaction. Alternatively, GST protein without ELAV sequences was used as a control. The radioactively labeled CD83 RNA was heated to 80° C. in a water bath and cooled to room temperature directly before the reaction. The GST-ELAV (HuR) fusion protein (or GST control protein directly expressed from the vector pGEX-5X-1 was carefully mixed with a binding mixture consisting of 1 μl radioactively labeled CD83 RNA, 1 μl Rnasin® RNAse inhibitor (diluted 5:1 in PBS), 1 μl 10×PBS and 6 μl MS2 RNA or 5S RNA (Roche Diagnostics, Mannheim, Germany) (0.8 μg/μl) and incubated at room temperature for 30 min. 3 μl of 50% glycerin were added to each reaction to ease loading and analysis of the binding between the GST-ELAV (HuR) fusion protein and the CD83 RNA occurred on a 4% or 6% native polyacrylamide gel with a TBE running buffer of pH 8.3.

[2] = target: T3, GST-ELAV (HuR) fusion protein (Homo sapiens, UniProt Q15717); assay: RNA gel mobility shift of CD83 RNA with GST-ELAV (HuR); conditions: for HuR binding to sub-fragment domain: FIG. 10
T3 construct: made in house; host or cells: E. coli BL21
T3 sequence (Q15717 whole entry, the tested form may be a part): as the sequence (Q15717 whole entry) above
Procedure: RNA mobility shift experiments are a very sensitive method for characterizing RNA-protein interactions. For this, the RNA to be examined can be amplified and radioactively labeled with the aid of in vitro transcription from a linear DNA template. The labeling generally occurs with […]. In order to ensure the correct folding of the RNA, this is heated in a water bath to 80° C. and cooled to room temperature. RNA obtained in this manner is then incubated with the desired protein and subsequently analyzed on a native polyacrylamide gel, i.e. under non-denaturing conditions.
In order to obtain radioactively labeled RNA for the RNA mobility shift experiments, approximately 20 μg of this vector were linearized with EcoRI and purified on a 0.8% agarose gel. After elution from the gel, the template was extracted with phenol and ethanol precipitated. The resulting DNA was resuspended at a concentration of […] in 20μl nuclease-free water. Radioactively labeled RNA was generated using a Riboprobe In Vitro Transcription System (Promega, Heidelberg, Germany) according to the instructions of the manufacturer using [α-^32P]-UTP. The transcription products were controlled for size and purity by separating 1 μl of the in vitro transcription reaction on a denaturing RNA agarose gel (1.2%), blotting the gel to a nitrocellulose membrane (Amersham-Pharmacia, Freiburg, Germany) for 8 hours and examining the nitrocellulose filter with the aid of photographic film using RNA size standards.
as §1
As a control for the specificity of the interaction between HuR and CD83 mRNA, RNA mobility shifts as described in Example 1 were performed using the GST protein as described above, a GST-L5 fusion protein (Schatz et al. (1998) PNAS USA 95: 1607-1612), and a GST- M9 fusion protein comprising the M9 domain of the heterogeneous nuclear ribonucleoprotein hnRNP A1 (Pollard, V. W. et al. (1996) Cell 86: 985-994).
The resulting vectors were linearized with EcoRI and radioactively labeled RNA was produced and employed in RNA mobility shift assays as described above.

GST-ELAV (HuR) [3] = target: T1, GST-ELAV (HuR); assay: Surface Plasmon Resonance (BIACore X) protein-RNA interaction
Description: Specific protein-RNA interactions were detected by Surface Plasmon Resonance using the BIACore X optical biosensor (Pharmacia Biosensor AB, Upsala, Sweden).
The RNA used contained nucleotides 466 to 615 of SEQ ID NO:1 having a molecular mass of 48,350 gr/mol.
The GST-fusion proteins of interest (GST alone or GST-ELAV (HuR)) were immobilized onto the surface of a CM5 Chip (Pharmacia Biosensor AB, Upsala, Sweden) by using the BIACore GST Capture Kit (Pharmacia Biosensor AB, Upsala, Sweden), according to the manufacturers instructions, until a change of at least 1,000 resonance units (RU) was detectable.
1 μg of in vitro transcribed RNA (using the T7/SP6 Riboprobe Kit, Promega, Mannheim, Germany) was diluted in a total volume of 80 μl HBS-EP buffer (10 mM HEPES, 150 mM NaCl, 3 mM EDTA, 0.005% (v/v) polysorbate 20) and was allowed to flow over the chip at a flow rate of 50μl/minute. The standard running buffer was HBS-EP buffer. The sensor surface was regenerated between assays by injecting 30 μl of 0.5 M NaCl to remove bound analyte.
Determination of KD values and calculation of binding specifity were performed using BIAEvaluation Software 3.1 (Pharmacia Biosensor AB, Upsala, Sweden).

B1: CD83 RNA: in vitro transcribed RNA of nucleotides 1 to 618 of SEQ ID NO:1 (human CD83 coding region) (nucleic acid, listed as Homo sapiens)
sense: ATGTCGCGCGGCCTCCAGCTTCTGCTCCTGAGCTGCGCCTACAGCCTGGCTCCCGCGACGCCGGAGGTGAAGGTGGCTTGCTCCGAAGATGTGGACTTGCCCTGCACCGCCCCCTGGGATCCGCAGGTTCCCTACACGGTCTCCTGGGTCAAGTTATTGGAGGGTGGTGAAGAGAGGATGGAGACACCCCAGGAAGACCACCTCAGGGGACAGCACTATCATCAGAAGGGGCAAAATGGTTCTTTCGACGCCCCCAATGAAAGGCCCTATTCCCTGAAGATCCGAAACACTACCAGCTGCAACTCGGGGACATACAGGTGCACTCTGCAGGACCCGGATGGGCAGAGAAACCTAAGTGGCAAGGTGATCTTGAGAGTGACAGGATGCCCTGCACAGCGTAAAGAAGAGACTTTTAAGAAATACAGAGCGGAGATTGTCCTGCTGCTGGCTCTGGTTATTTTCTACTTAACACTCATCATTTTCACTTGTAAGTTTGCACGGCTACAGAGTATCTTCCCAGATTTTTCTAAAGCTGGCATGGAACGAGCTTTTCTCCCAGTTACCTCCCCAAATAAGCATTTAGGGCTAGTGACTCCTCACAAGACAGAACTGGTATGA
modifications: RNA transcript; CDS (1)..(615)
- competition of labeled CD83 RNA binding by unlabeled RNA (GST-ELAV (HuR) [1]): capable of titrating free GST-ELAV (HuR) protein
- mobility shift of the RNA by GST protein control (GST protein): no shift occurred
- specificity of the shift in mobility (GST, GST-L5, GST-M9, GST-ELAV (HuR)) ([2]; FIG. 4): only observed with protein comprising the HuR sequence
- mobility shift of the RNA by GST-ELAV (HuR) ([2]; native polyacrylamide gel, FIG. 3): shifted the CD83 RNA to a higher position in the gel
- region of HuR binding ([2]; sub-fragments nt1-294, nt202-414, nt295-618, FIG. 6): from nucleotide 415 to nucleotide 618

B2: stem-loop-1: CD83 RNA sub-fragment from nucleotide 295 to nucleotide 465 of SEQ ID NO:1, single stem-loop structure (nucleic acid, listed as Homo sapiens)
sense: AGCTGCAACTCGGGGACATACAGGTGCACTCTGCAGGACCCGGATGGGCAGAGAAACCTAAGTGGCAAGGTGATCTTGAGAGTGACAGGATGCCCTGCACAGCGTAAAGAAGAGACTTTTAAGAAATACAGAGCGGAGATTGTCCTGCTGCTGGCTCTGGTTATTTTCTAC
modifications: RNA; CDS (1)..(615)
- HuR binding to sub-fragment domain [2]: can bind

B3: stem-loop-2: CD83 RNA sub-fragment from nucleotide 466 to nucleotide 618 of SEQ ID NO:1, 3-pronged stem-loop structure (nucleic acid, listed as Homo sapiens)
sense: TTAACACTCATCATTTTCACTTGTAAGTTTGCACGGCTACAGAGTATCTTCCCAGATTTTTCTAAAGCTGGCATGGAACGAGCTTTTCTCCCAGTTACCTCCCCAAATAAGCATTTAGGGCTAGTGACTCCTCACAAGACAGAACTGGTATGA
modifications: RNA; CDS (1)..(615)
- HuR binding to sub-fragment domain [2]: can bind

B4: CD83 from nucleotides 466 to 615 of SEQ ID NO:1: in vitro transcribed RNA containing nucleotides 466 to 615 of SEQ ID NO:1 (nucleic acid, listed as Homo sapiens)
sense: TTAACACTCATCATTTTCACTTGTAAGTTTGCACGGCTACAGAGTATCTTCCCAGATTTTTCTAAAGCTGGCATGGAACGAGCTTTTCTCCCAGTTACCTCCCCAAATAAGCATTTAGGGCTAGTGACTCCTCACAAGACAGAACTGGTA
modifications: RNA transcript; CDS (1)..(615)
- binding of HuR (affinity and specificity in words) (GST-ELAV (HuR) [3]): high affinity and is highly specific
